These results are taken from US20120058126A1 (Eli Lilly, published 2012).

Bounds are passed on as bounds.

In general, Kd refers to the constant that tells how readily two partners part at equilibrium. Read a low Kd as higher affinity. The term IC50 denotes the concentration at which inhibition is half-maximal. Lower therefore signals greater potency.

Assay [1] deals with chimera 4 (human Ig1-mouse Ig2-human Ig3) sR3-AP (human; mouse, UniProt P05187 23-511). As to the kind of experiment: sR3-AP chimera binding assay on antibody-coated plates. The method, then:
(§1) After 2 hr incubation, the plates are washed 5 times and bound sR3-AP is detected by chemiluminescence.
(§2) DNA sequences encoding mouse and human Ig domains 1-3 are swapped in various combinations to form the following VEGFR-3 extracellular domain constructs: i) wild-type human; ii) wild-type mouse; iii) chimera 1 (human Ig1-human Ig2-mouse Ig3); chimera 2 (human Ig1-mouse Ig2-mouse Ig3); (iv) chimera 3 (mouse Ig1-human Ig2-mouse Ig3) and (v) chimera 4 (human Ig1-mouse Ig2-human Ig3). The constructs are expressed as fusion proteins with alkaline phosphatase (AP) Persaud, et al., supra. The encoded proteins are isolated from conditioned media (CM) of transiently transfected cells and normalized to equal protein concentration and AP activity.

Assay [2] has as its target chimera 2 (human Ig1-mouse Ig2-mouse Ig3) sR3-AP (human; mouse, UniProt P05187 23-511). The assay is described as above. How it is done: as §1, §2
The target of assay [3] is T1, human sR3-AP (full-length soluble extracellular region of human VEGFR-3, Ig domains 1-7, fused to human … (human)).
T1 construct: also called soluble extracellular domain of human VEGFR-3
Put plainly: SPR, BIACORE 2000 at 20° C, sR3-AP immobilized, antibody injected at 0.8 to 6.25 nM. How it is done: Sensograms are evaluated using the BIA Evaluation 3.2 program to determine the on rates (ka) and the off rates (kd). The dissociation constant (Kd) is calculated from the ka and kd rates using the equation: […].
For orientation: SPR reads the build-up and loss of mass on a sensor chip optically.

Assay [4] deals with T1, human sR3-AP (full-length soluble …). As to the kind of experiment: competitive VEGF-C blocking assay: Fab mixed with 50 ng sR3-AP, plates coated with VEGF-CΔNΔC, OD405; Fab, not IgG. The method, then: After an additional 2 hours, the plates are washed five times and p-nitrophenyl phosphate (Sigma) is added to quantify the bound sR3-AP molecules at OD₄₀₅ₙₘ.
For assay [5], the target named is T2, VEGFR-3-cFMS chimeric receptor (extracellular domain of human VEGFR-3 fused with the transmembrane and … (human, UniProt P07333 518-972, limits assumed)).
T2 sequence: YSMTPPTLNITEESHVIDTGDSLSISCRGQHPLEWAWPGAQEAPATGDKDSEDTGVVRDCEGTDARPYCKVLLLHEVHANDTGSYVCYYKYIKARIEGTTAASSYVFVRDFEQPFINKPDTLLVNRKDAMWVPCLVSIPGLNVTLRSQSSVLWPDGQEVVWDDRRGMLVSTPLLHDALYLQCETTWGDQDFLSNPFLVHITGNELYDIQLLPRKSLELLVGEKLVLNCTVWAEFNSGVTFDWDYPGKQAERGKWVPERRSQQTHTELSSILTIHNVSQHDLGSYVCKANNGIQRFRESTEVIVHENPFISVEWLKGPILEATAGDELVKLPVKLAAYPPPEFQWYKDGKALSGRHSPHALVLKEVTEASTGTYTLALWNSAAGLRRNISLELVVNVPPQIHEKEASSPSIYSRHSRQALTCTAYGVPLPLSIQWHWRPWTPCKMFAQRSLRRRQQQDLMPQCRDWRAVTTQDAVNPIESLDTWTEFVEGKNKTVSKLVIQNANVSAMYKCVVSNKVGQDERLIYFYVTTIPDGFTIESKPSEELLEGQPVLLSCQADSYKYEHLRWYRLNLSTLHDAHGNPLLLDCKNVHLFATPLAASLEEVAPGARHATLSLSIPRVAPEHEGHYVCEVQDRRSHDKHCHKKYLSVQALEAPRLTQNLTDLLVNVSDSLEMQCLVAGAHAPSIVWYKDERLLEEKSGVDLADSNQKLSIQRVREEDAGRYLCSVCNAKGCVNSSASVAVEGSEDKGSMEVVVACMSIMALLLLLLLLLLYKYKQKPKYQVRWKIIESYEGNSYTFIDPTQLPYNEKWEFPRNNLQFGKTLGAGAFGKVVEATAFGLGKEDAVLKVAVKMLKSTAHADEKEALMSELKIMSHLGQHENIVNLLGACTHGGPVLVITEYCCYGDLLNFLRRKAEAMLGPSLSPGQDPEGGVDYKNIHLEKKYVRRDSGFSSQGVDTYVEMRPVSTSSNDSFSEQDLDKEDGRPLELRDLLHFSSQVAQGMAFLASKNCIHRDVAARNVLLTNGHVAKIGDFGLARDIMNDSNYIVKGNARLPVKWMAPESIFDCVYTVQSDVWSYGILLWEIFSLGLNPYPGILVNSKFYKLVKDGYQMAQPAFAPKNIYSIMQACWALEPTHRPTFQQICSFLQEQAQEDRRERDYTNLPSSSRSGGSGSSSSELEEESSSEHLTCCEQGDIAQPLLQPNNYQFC
As to the kind of experiment: cell-based or functional assay.

B1: Antibody 1 (IgG form) (antibody, V domains shown)
VH: QVQLQQSGPGLVKPSQTLSLTCAISGDSVSGNSATWNWIRQSPSRGLEWLGRTYYRSKWNHDYAESVKSRITINPDTSKNQFSLQLNSVTPEDTAVYYCARGDSSSWYAFDYWGQGTLVTVSS
VL: EIVLTQSPGTLSLSLGERATLSCRASQSISSSFLAWYQQKPGQAPKLLIYAASTRATGIPDRFSGSGSGTDFTLTISRLEPEDFAVYYCQQYGRSLSFGGGTKVEVKR
notes: also called human anti-VEGFR-3 mAb
In the case of B1, the binding result in assay [1] and in assay [2] was “no binding” each time. Further, the Kd in assay [3] came out at 0.056 nM.

B2: Antibody 1 (Fab form) (Fab, V domains shown)
VH: QVQLQQSGPGLVKPSQTLSLTCAISGDSVSGNSATWNWIRQSPSRGLEWLGRTYYRSKWNHDYAESVKSRITINPDTSKNQFSLQLNSVTPEDTAVYYCARGDSSSWYAFDYWGQGTLVTVSS
VL: EIVLTQSPGTLSLSLGERATLSCRASQSISSSFLAWYQQKPGQAPKLLIYAASTRATGIPDRFSGSGSGTDFTLTISRLEPEDFAVYYCQQYGRSLSFGGGTKVEVK
notes: also called Fab of Antibody 1
Consider B2, for which the IC50 in assay [4] was determined as 2 nM.

B3: recombinant mature human VEGF-CΔNΔC (ligand)
chain: AHYNTEILKSIDNEWRKTQCMPREVCIDVGKEFGVATNTFFKPPCVSVYRCGGCCNSEGLQCMNTSTSYLSKTLFEITVPLSQGPKPVTISFANHTSCRCMSKL
Regarding B3, the “incorporation of [3H]-TdR (mitogenic response)” value in assay [5] is no less than 3 fold.
